In patent publication US20150110786A1 (YEDA RESEARCH AND DEVELOPMENT, published 2015):

T1: Recombinant human QSOX1 (HsQSOX1 33-546) (human, UniProt O00391 33-546, bound FAD cofactor)
T1 sequence: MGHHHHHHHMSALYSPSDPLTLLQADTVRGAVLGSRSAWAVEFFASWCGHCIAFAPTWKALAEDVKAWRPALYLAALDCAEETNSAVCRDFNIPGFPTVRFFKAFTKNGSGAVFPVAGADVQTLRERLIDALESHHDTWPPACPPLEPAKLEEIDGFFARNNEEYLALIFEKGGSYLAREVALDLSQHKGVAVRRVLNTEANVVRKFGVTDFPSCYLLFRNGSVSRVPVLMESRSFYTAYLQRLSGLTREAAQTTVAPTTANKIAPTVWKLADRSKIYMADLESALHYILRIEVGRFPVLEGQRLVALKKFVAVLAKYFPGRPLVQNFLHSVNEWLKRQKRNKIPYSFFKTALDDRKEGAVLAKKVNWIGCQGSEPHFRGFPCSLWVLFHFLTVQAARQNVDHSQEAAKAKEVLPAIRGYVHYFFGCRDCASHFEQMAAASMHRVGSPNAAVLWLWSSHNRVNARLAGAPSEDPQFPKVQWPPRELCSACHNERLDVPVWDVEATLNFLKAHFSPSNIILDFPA

T2: HsQSOX1Erv (carboxy-terminal fragment of human QSOX1, psi-Erv and Erv domains) (human, UniProt O00391 286-546, limits assumed, bound FAD cofactor)
T2 construct: domain: carboxy-terminal fragment, HsQSOX1Erv (two Erv-fold domains); also called HsQSOX1 carboxy-terminal fragment
T2 sequence (looked up): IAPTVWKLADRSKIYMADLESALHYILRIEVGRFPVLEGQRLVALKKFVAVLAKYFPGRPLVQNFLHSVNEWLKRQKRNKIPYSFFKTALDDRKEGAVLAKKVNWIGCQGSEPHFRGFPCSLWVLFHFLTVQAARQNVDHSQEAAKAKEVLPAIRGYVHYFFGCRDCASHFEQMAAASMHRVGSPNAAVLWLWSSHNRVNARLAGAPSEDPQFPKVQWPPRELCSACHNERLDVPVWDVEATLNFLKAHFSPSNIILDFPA


What was measured:
[1] = biological target: T1, Recombinant human QSOX1 (HsQSOX1 33-546); assay: cell-based or functional assay
[2] = biological target: T1, Recombinant human QSOX1 (HsQSOX1 33-546); assay: calculated from the IC50 of the rdRNase oxidation colorimetric assay with the equation for competitive inhibition
Protocol: Reactions of 100 μL volume were conducted in 96 well plates (Nunc). Reduced and denatured RNaseA (Sigma) was used as a model substrate and was prepared as follows. Ten mg RNase was dissolved in 1 ml of 20 mM phosphate buffer, pH 6.5, 6 M GuHCl, and 100 mM DTT, and incubated at 37° C. for 1 hr. The protein was desalted on a PD-10 column (GE Healthcare) equilibrated with DDW, and its thiol content was determined by DTNB absorbance at 412 nm. 50 nM recombinant HsQSOX1 and various concentrations of monoclonal antibody clones were incubated for 30 min at RT. Reactions were initiated with the addition of 200 μM RNase thiols and were quenched after 25 min with 1 mM DTNB. Absorbance was measured at 405 nm in a microplate reader.

[3] = biological target: T2, HsQSOX1Erv (carboxy-terminal fragment …); assay: ELISA
[4] = biological target: T1, Recombinant human QSOX1 (HsQSOX1 33-546); assay: oxygen consumption assay, 25 nM HsQSOX1, 1-250 nM MAb492.1, 200 µM DTT, fit to a tight-binding inhibitor model
Protocol: A Clarke-type oxygen electrode (Hansatech Instruments) was used to monitor changes in dissolved oxygen concentrations as a measure of HsQSOX1 activity. […] Reactions were started by injection of dithiothreitol (DTT) to a concentration of 200 μM in the electrode reaction chamber. […] The ratios of the initial rates of HsQSOX1 in the presence and absence of inhibitor were plotted as a function of inhibitor concentration.
This assay allows direct determination of initial velocities and not just degree of activity.

Binder | IC50, inhibition of rdRNase oxidation (DTNB colorimetric assay), 50 nM HsQSOX1 [1] [nM] | Ki [2] [nM] | binding result [3] | IC50, inhibition of rdRNase oxidation (DTNB colorimetric assay), 250 nM HsQSOX1 [1] [nM] | Ki [4] [nM]
scFv492.1 (scFv, also called single chain antibody fragment of MAb492.1; not shown: thrombin-cleavable His6-tag at the amino terminus) scFv: QVQLKQSGPGLVAPSQSLSITCTVSGFSLTGYGVNWVRQSPGKGLEWLGMIWGDGRTDYKSALKSRLSITKDNSKSQVFLKMNSLQTDDTARYFCASDYYGSGSFAYWGQGTLVTVSAGGGGSGGGGSGGGGSDVVMTQTHKFMSTSVGDRVSITCKASQDVSTAVAWYQQKSGQSPKLLIHSASYRYTGVPDRFTGSGSGTDFTFTISSVQAEDLAVYYCQQHYSIPLTFGAGTKLELK | 250 | 130 |  |  | 
MAb492.1 (antibody, V domains shown, also called anti-QSOX1 monoclonal antibody; QSOX1-specific monoclonal antibody) VH: QVQLKQSGPGLVAPSQSLSITCTVSGFSLTGYGVNWVRQSPGKGLEWLGMIWGDGRTDYKSALKSRLSITKDNSKSQVFLKMNSLQTDDTARYFCASDYYGSGSFAYWGQGTLVTVSA VL: DVVMTQTHKFMSTSVGDRVSITCKASQDVSTAVAWYQQKSGQSPKLLIHSASYRYTGVPDRFTGSGSGTDFTFTISSVQAEDLAVYYCQQHYSIPLTFGAGTKLELK | 60 |  | no binding | 240 | 1
Fab492.1 (Fab fragment of MAb492.1) (Fab, V domains shown) VH: QVQLKQSGPGLVAPSQSLSITCTVSGFSLTGYGVNWVRQSPGKGLEWLGMIWGDGRTDYKSALKSRLSITKDNSKSQVFLKMNSLQTDDTARYFCASDYYGSGSFAYWGQGTLVTVSA VL: DVVMTQTHKFMSTSVGDRVSITCKASQDVSTAVAWYQQKSGQSPKLLIHSASYRYTGVPDRFTGSGSGTDFTFTISSVQAEDLAVYYCQQHYSIPLTFGAGTKLELK | 100 |  |  |  | 
